According to patent publication US20060234282A1 (NATIONAL RESEARCH COUNCIL OF CANADA, published 2006):

Target: T1, rat galanin receptor-2 (GAL-R2) (rat, UniProt O08726 1-372)
T1 construct: Full 372 amino acid open reading frame expressed from pCDNA3/GALR-2 in HEK293 cells; cAMP assays used whole cells; also called rat GAL-R2; RGALR2.PRO
T1 sequence: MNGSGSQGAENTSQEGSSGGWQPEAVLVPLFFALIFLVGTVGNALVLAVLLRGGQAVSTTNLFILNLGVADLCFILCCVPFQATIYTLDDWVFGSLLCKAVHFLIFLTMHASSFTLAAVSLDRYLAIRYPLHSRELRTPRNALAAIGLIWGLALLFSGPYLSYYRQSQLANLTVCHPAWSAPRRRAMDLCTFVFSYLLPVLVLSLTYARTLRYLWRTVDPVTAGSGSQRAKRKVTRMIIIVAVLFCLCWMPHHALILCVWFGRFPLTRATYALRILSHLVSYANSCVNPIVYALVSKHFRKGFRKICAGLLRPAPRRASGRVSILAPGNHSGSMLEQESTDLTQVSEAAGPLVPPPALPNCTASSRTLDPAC
Test: displacement of ^125I-galanin, membranes of HEK293 cells expressing rat GAL-R2
Experimental: Binding reactions proceeded for 20 min at room temperature and were stopped by filtration through Unifilters-96, GF/B filters (Canberra Packard), using the 96-well Filtermate 196 filtration system from Canberra Packard. Filters were washed 5 times with 0.5 ml of ice cold 20 mM HEPES pH 7.5. The filters were dried at 55° C. for one hour and then 100 μl of μScint-20 (Canberra Packard) was added per well. Filters were counted with the Topcount microplate counter from Canberra Packard.

## M40 (peptide)
  Ki: 8.3 nM

## RPKPQQFFGLM (peptide, UniProt P20366 58-68, looked up, Galanin-unrelated control ligand) [substance P]
  binding result: no binding

## HSDAVFTDNYTRLRKQMAVKKYLNSILN (peptide, UniProt P01282 125-152, looked up, Galanin-unrelated control ligand) [vasoactive intestinal polypeptide]
  binding result: no binding
